Data: paper PMC5551698 (The Journal of Cell Biology, 2017)

Target: His-CRMP-1 (human CRMP-1) (human, UniProt Q14194 1-572)
Assay: pull-down

Sequence of His-CRMP-1 (human CRMP-1) (Q14194 whole entry): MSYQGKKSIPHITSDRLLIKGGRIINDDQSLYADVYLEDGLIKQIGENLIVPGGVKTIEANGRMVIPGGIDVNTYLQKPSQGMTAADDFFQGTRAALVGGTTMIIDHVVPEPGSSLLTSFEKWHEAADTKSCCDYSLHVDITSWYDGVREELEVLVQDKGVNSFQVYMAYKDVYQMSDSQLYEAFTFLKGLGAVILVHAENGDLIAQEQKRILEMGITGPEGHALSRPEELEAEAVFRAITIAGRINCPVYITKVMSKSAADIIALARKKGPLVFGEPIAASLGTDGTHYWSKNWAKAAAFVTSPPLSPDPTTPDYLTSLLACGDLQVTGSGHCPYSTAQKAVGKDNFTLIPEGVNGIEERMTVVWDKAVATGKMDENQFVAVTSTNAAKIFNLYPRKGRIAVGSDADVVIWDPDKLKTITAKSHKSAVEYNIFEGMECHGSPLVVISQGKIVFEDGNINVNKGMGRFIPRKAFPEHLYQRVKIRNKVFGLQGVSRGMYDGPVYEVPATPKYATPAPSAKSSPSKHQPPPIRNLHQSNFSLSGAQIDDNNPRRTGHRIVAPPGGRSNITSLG

- Kd: 2000 nM
B1: MBP-EVL (human EVL, full length) (natural protein, UniProt Q9UI08 1-416, looked up)
chain: MSEQSICQARASVMVYDDTSKKWVPIKPGQQGFSRINIYHNTASNTFRVVGVKLQDQQVVINYSIVKGLKYNQATPTFHQWRDARQVYGLNFASKEEATTFSNAMLFALNIMNSQEGGPSSQRQVQNGPSPDEMDIQRRQVMEQHQQQRQESLERRTSATGPILPPGHPSSAASAPVSCSGPPPPPPPPVPPPPTGATPPPPPPLPAGGAQGSSHDESSMSGLAAAIAGAKLRRVQRPEDASGGSSPSGTSKSDANRASSGGGGGGLMEEMNKLLAKRRKAASQSDKPAEKKEDESQMEDPSTSPSPGTRAASQPPNSSEAGRKPWERSNSVEKPVSSILSRTPSVAKSPEAKSPLQSQPHSRMKPAGSVNDMALDAFDLDRMKQEILEEVVRELHKVKEEIIDAIRQELSGISTT
